Assay results: US20130266517A1 (published 2013)
Substitutions are numbered along the chain they refer to.

B1: Humanized 1H7 H2L1 (Hu1H7VHv2-Hu1H7VLv1) (antibody, V domains shown)
VH: QVQLVQSGAEVKKPGASVKVSCKASGYSFTSYYIHWVRQAPGQGLEWIGWIYPGSGNTKYSEKFKGRATLTADTSTSTAYMELRSLRSDDTAVYFCARDGCYGFAYWGQGTLVTVSS
VL: DIQLTQSPSSLSASVGDRVTITCKASQSVDYDGDSYMNWYQQKPGKAPKFLICAASNLESGVPSRFSGSGSGTDFTLTISSLQPEDAATYYCQQSNEDPFTFGQGTKLEIK
B2: Humanized 1H7 H4L3 (Hu1H7VHv4-Hu1H7VLv3) (antibody, V domains shown)
VH: B1 VH with C101S
VL: B1 VL with A87F
B3: Humanized 1H7 H1L3 (Hu1H7VHv1-Hu1H7VLv3) (antibody, V domains shown)
VH: B1 VH with V11L, R38K
VL: B1 VL with A87F
B4: Humanized 1H7 H2L2 (Hu1H7VHv2-Hu1H7VLv2) (antibody, V domains shown)
VH: B1 VH
VL: B1 VL with C53Y
B5: Humanized 1H7 H4L2 (Hu1H7VHv4-Hu1H7VLv2) (antibody, V domains shown)
VH: B1 VH with C101S
VL: B1 VL with C53Y
B6: Humanized 1H7 H5L4 (Hu1H7VHv5-Hu1H7VLv4) (antibody, V domains shown)
VH: B1 VH with S28T, I48M, L70M, F95Y, C101S
VL: B1 VL with C53Y, A87F
B7: Humanized 1H7 H1L1 (Hu1H7VHv1-Hu1H7VLv1) (antibody, V domains shown)
VH: B1 VH with V11L, R38K
VL: B1 VL
B8: Humanized 1H7 H5L3 (Hu1H7VHv5-Hu1H7VLv3) (antibody, V domains shown)
VH: B1 VH with S28T, I48M, L70M, F95Y, C101S
VL: B1 VL with A87F
B9: Humanized 1H7 H4L4 (Hu1H7VHv4-Hu1H7VLv4) (antibody, V domains shown)
VH: B1 VH with C101S
VL: B1 VL with C53Y, A87F
B10: Humanized 1H7 H5L2 (Hu1H7VHv5-Hu1H7VLv2) (antibody, V domains shown)
VH: B1 VH with S28T, I48M, L70M, F95Y, C101S
VL: B1 VL with C53Y
B11: Humanized 1H7 H1L2 (Hu1H7VHv1-Hu1H7VLv2) (antibody, V domains shown)
VH: B1 VH with V11L, R38K
VL: B1 VL with C53Y
B12: Humanized 1H7 H1L4 (Hu1H7VHv1-Hu1H7VLv4) (antibody, V domains shown)
VH: B1 VH with V11L, R38K
VL: B1 VL with C53Y, A87F
B13: Humanized 1H7 H5L1 (Hu1H7VHv5-Hu1H7VLv1) (antibody, V domains shown)
VH: B1 VH with S28T, I48M, L70M, F95Y, C101S
VL: B1 VL
B14: Humanized 1H7 H3L3 (Hu1H7VHv3-Hu1H7VLv3) (antibody, V domains shown)
VH: B1 VH with S28T, I48M, L70M, F95Y
VL: B1 VL with A87F
B15: Humanized 1H7 H4L1 (Hu1H7VHv4-Hu1H7VLv1) (antibody, V domains shown)
VH: B1 VH with C101S
VL: B1 VL
B16: Humanized 1H7 H3L1 (Hu1H7VHv3-Hu1H7VLv1) (antibody, V domains shown)
VH: B1 VH with S28T, I48M, L70M, F95Y
VL: B1 VL
B17: Murine 1H7 (antibody, mouse IgG1, V domains shown)
VH: VQLQQSGPELVKPGTSVKISCKASGYSFTSYYIHWVKQSPGQGLEWIGWIYPGSGNTKYSEKFKGKATLTADTSSSTAYMQLSSLTSEDSAVYFCARDGCYGFAYWGQGTLVTVS
VL: DIVLTQSPASLAVSLGQRATISCKASQSVDYDGDSYMNWYQQKPGQPPKFLICAASNLESGIPARFSGSGSGTDFTLNIHPVEEEDAATYYCQQSNEDPFTFGSGTKLEIK
notes: Mouse IgG1; also called m1H7; mouse 1H7

What follows are binders tested against T1, alpha-synuclein (natural human wildtype alpha-synuclein) (human, UniProt P37840 1-140) (assay: BLI, ForteBio Octet QK; apparent ka).
Procedure: (§1) Binding kinetic of humanized 1H7 antibodies were also measured by bio-layer interferometry (BLI) using a ForteBio Octet QK instrument (ForteBio, Menlo Park, Calif.). Detailed binding kinetic parameters (association rate, apparent ka, dissociation rate, apparent kd, and affinity constant, apparent KD) were determined for chimeric 1H7 and various humanized 1H7 antibodies (Tables 6-7, FIGS. 4A-C). Apparent ka, apparent kd and apparent KD are binding kinetic parameters obtained using ForteBio assay formats. These parameters differ from ka, kd and KD measured using Biocore assays due to, e.g., avidity effects associated with ForteBio assay formats.

| kon [M⁻¹ s⁻¹] | Binder |
| --- | --- |
| 580000 | B1 |
| 740000 | B2 |
| 220000 | B3 |
| 2.3e+06 | B4 |
| 1.2e+06 | B5 |
| 1.6e+06 | B6 |
| 250000 | B7 |
| 760000 | B8 |
| 520000 | B9 |
| 520000 | B10 |
| 1.6e+06 | B11 |
| 1.8e+06 | B12 |

The binders below were run against T1, alpha-synuclein (natural human wildtype …) (assay: BLI, ForteBio Octet QK; apparent KD).
Procedure: as §1

| Kd [nM] | Binder |
| --- | --- |
| 0.0072 | B1 |
| 2.7 | B2 |
| 2.9 | B3 |
| 2 | B4 |
| 1.7 | B5 |
| 1.2 | B6 |
| 4.8 | B7 |
| 2.6 | B8 |
| 4.4 | B9 |
| 4 | B10 |
| 5.8 | B11 |
| 3.3 | B12 |

Each binder was assayed against T1, alpha-synuclein (natural human wildtype …) (assay: Biacore (SPR) full kinetic analysis).
Procedure: Biacore full binding kinetic analysis of antibodies were carried out using Biacore. Detailed binding kinetic parameters (association rate, ka, dissociation rate, kd, and affinity constant, KD) were determined for murine 1H7 (FIG. 3A), chimeric 1H7 (FIG. 3B) and humanized 1H7 (Hu1H7VHv3-Hu1H7VLv3, Hu1H7VHv3-Hu1H7VLv1, Hu1H7VHv4-Hu1H7VLv1) antibodies (FIG. 3C).

| Kd [nM] | koff [s⁻¹] | kon [M⁻¹ s⁻¹] | Binder |
| --- | --- | --- | --- |
| 64 | 0.056 | 880000 | B13 |
| 9 | 0.011 | 1.3e+06 | B14 |
| 33.9 | 0.033 | 970000 | B15 |
| 12 | 0.013 | 1.1e+06 | B16 |
| 9.5 | 0.0096 | 1e+06 | B17 |

These binders were tested against T1, alpha-synuclein (natural human wildtype …) (assay: BLI, ForteBio Octet QK; apparent kd).
Procedure: as §1

| koff [s⁻¹] | Binder |
| --- | --- |
| 4.2e-06 | B1 |
| 0.002 | B2 |
| 0.00064 | B3 |
| 0.0046 | B4 |
| 0.0021 | B5 |
| 0.0019 | B6 |
| 0.0012 | B7 |
| 0.002 | B8 |
| 0.0023 | B9 |
| 0.0021 | B10 |
| 0.009 | B11 |
| 0.0058 | B12 |
